Assay results reported in patent US20160053025A1 (SAMSUNG ELECTRONICS, published 2016).
Changes are numbered by the printed parent chain.

Columns and labels:
Assay in all cases: ELISA, antibody coated, FLAG-tagged mutant Ang2 RBD detected with anti-FLAG-HRP
[1] = biological target: T1, Ang2 RBD I434A, FLAG-tagged (human, UniProt O15123 281-496, limits assumed)
T1 construct: Printed as '1434', read as I434
T1 chain: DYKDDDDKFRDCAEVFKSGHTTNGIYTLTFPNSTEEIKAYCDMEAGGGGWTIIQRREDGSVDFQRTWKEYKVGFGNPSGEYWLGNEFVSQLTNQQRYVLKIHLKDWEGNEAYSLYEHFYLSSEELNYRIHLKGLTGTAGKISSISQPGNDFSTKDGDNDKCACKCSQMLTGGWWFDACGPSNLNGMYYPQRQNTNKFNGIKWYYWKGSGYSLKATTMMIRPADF
Description: (§1) To verify the epitope (or specific binding site) of the anti-Ang2 antibody prepared in Reference Example 2.3, an ELISA was performed using a recombinant protein where a receptor binding domain (RBD) of Ang2 protein in the form of being tagged with Flag was mutated by artificial means.
(§2) Each well of a 96-well MaxiSorp™ flat-bottom plate (Nunc) was coated with 50 ul (microliter) of 1000 nM antibody. Then, the plate was washed five times with 0.05% (v/v) Tween-20-containing PBS (PBST) and blocked with 1% (v/v) BSA-containing PBS at a room temperature for 2 hours. 250 ng of each mutant Ang2 protein obtained by substituting S417, Q418, P419, N421, 1434, D448, A449, P452, Y460, N467, K468, or F469 residue of Ang2 protein tagged with a FLAG sequence ([…], Sigma) at its N-terminal with alanine was added to each well of the plate, which was then allowed to react at a room temperature for 2 hours.
(§3) Finally, 50 ul of TMB substrates (Cell signaling) was added to each well of the plate to induce color development at a room temperature for 3 min. and the reaction was ceased by the addition of 50 ul of Stop solution (Cell signaling) and then, OD450 values were measured on a plate reader (Molecular Devices). By comparing binding affinities with mutated Ang2 to those of unmutated Ang2, each epitope of Ang2 antibodies was identified. The obtained measurement results of the binding affinities (%) with mutant Ang2 against the binding affinity with the native Ang2 are shown in the following Table 13.

[2] = biological target: T2, Ang2 RBD F469A, FLAG-tagged (human, UniProt O15123 281-496, limits assumed)
T2 chain: T1 chain with A162I, F197A
Description: as §1, §2, §3

[3] = biological target: T3, Ang2 RBD P452A, FLAG-tagged (human, UniProt O15123 281-496, limits assumed)
T3 chain: T1 chain with A162I, P180A
Description: as §1, §2, §3

[4] = biological target: T4, Ang2 RBD Q418A, FLAG-tagged (human, UniProt O15123 281-496, limits assumed)
T4 chain: T1 chain with Q146A, A162I
Description: as §1, §2, §3

[5] = biological target: Ang2 RBD A449 mutant (with alanine), FLAG-tagged (human) (UniProt O15123)

B1: SAIT-ANG2-AB-m10D6 (antibody, V domains shown)
VH: DVQLQESGPDLVKPSQSLSLTCTVTGYSITSDYAWNWIRQFPGNKLEWMGYINYSGNTDYNPSLKSRSSITRDTSKNQFFLQLNSVTTGDTATYYCARGNFEGAMDYWGQGTSVTVSS
VL: SIVMTQTPKFLLVSAGDRVTITCKASQSVSNDVAWYQQKPGQSPKLLIYYASNRYPGVPDRFTGSGYGTDFTFTISTVQAEDLAVYFCQQDYSSPWTFGGGTKLEIK
notes: Mouse monoclonal antibody purified from a hybridoma (KCLRF-BP-00295); it is not applied here; also called mouse antibody 10D6; 10D6 antibody
- binding affinity (%) with mutant Ang2 against the binding affinity with the native Ang2 [1]: 109%
- binding affinity (%) with mutant Ang2 against the binding affinity with the native Ang2 [2]: 109%
- binding affinity (%) with mutant Ang2 against the binding affinity with the native Ang2 [3]: 102%
- binding affinity (%) with mutant Ang2 against the binding affinity with the native Ang2 [4]: 38.9%
- binding affinity (%) with mutant Ang2 against the binding affinity with the native Ang2 [5]: 97.9%
